Measured values: patent US20140256912A1, “Stabilized Variant MAML Peptides and Uses Thereof” (PRESIDENT AND FELLOWS OF HARVARD COLLEGE, priority 2011, published 2014)
Bridge positions count the residues as written; N and C are the ends. Square brackets hold non-standard residues; d marks the D form. Ends that are not written are not given here. S5 = C=CCCC[C@](C)(N)C(=O)O; βAla = NCCC(=O)O

How the values were obtained:
[1] = biological target: T1, Bio-sdnMAML1 binding to GST-RAMANK1-CSL (Homo sapiens, UniProt P46531+Q06330); assay: ALPHAscreen NTC competition assay; conditions: titration of unlabeled peptide (FIG. 2h)
T1 construct: RAMANK1 (residues 1761-2127) and GST-labeled RAMANK1; Human CSL bearing a C-terminal hexahistidine tag (residues 9-435); hexahistidine (His6) (C); made in house; host or cells: E. coli BL21(DE3) pLysS (proteins); solid-phase peptide synthesis (Bio-sdnMAML1)
T1 sequence (P46531 1760-2126): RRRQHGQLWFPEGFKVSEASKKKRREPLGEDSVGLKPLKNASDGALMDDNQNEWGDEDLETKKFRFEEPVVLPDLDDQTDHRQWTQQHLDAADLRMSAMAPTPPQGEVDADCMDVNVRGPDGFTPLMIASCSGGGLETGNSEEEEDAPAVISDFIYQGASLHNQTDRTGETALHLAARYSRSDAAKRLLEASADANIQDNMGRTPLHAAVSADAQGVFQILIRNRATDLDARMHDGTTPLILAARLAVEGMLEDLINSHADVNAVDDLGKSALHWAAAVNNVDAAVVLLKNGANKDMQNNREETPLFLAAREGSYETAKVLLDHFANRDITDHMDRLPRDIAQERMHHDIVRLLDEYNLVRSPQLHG
T1 sequence (Q06330 23-449): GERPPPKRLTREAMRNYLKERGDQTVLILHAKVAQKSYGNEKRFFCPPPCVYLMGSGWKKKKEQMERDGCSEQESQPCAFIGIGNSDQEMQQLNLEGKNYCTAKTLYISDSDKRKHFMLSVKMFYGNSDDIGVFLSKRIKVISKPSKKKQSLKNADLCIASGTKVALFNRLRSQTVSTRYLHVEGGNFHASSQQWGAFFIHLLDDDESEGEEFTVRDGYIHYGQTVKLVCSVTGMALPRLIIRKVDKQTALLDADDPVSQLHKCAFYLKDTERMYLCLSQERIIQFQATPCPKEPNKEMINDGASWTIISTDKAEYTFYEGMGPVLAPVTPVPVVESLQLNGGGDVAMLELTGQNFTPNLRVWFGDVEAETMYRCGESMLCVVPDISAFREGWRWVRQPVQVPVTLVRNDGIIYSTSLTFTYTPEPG
From the text: The biophysics of NTC assembly has been studied using relatively low-throughput assays including electrophoretic-mobility shift assays^24, isothermal titration calorimetry^49, and various immunoprecipitation strategies. More recently, Del Bianco et al. reported the use of a FRET-based system measuring the proximity of a donor fluorophore-labeled ANK protein to an acceptor-labeled oligonucleotide upon NTC assembly, which allowed determination of relative equilibrium constants for the entire complex^45. We also reported the use of surface plasmon resonance (SPR) and fluorescence polarization assays measuring the association of NTC components with each other and with stapled peptides^37. To date however, there are no high-throughput assays reported that quantitatively measure dnMAML1-NOTCH-CSL complex formation. […] The ALPHAscreen technology (ALPHA meaning amplified luminescence proximity homogenous assay) employs functionalized beads approximately 200 nm in diameter to detect the association of cognate binding partners in solution^50,51. […] The use of microwave-assisted peptide synthesis and a slightly altered SPPS protocol readily afforded the biotinylated sdnMAML1 peptide (bio-sdnMAML1, and others with alternative N-terminal modifications) at greater than 95% purity by LCMS analysis (FIG. 2b, FIG. 7). […]

ICN1-CSL complex = ICN1-CSL complex (Homo sapiens, UniProt P46531+Q06330); conditions: cited from earlier work
Chain of ICN1-CSL complex (P46531 1754-2555 limits assumed): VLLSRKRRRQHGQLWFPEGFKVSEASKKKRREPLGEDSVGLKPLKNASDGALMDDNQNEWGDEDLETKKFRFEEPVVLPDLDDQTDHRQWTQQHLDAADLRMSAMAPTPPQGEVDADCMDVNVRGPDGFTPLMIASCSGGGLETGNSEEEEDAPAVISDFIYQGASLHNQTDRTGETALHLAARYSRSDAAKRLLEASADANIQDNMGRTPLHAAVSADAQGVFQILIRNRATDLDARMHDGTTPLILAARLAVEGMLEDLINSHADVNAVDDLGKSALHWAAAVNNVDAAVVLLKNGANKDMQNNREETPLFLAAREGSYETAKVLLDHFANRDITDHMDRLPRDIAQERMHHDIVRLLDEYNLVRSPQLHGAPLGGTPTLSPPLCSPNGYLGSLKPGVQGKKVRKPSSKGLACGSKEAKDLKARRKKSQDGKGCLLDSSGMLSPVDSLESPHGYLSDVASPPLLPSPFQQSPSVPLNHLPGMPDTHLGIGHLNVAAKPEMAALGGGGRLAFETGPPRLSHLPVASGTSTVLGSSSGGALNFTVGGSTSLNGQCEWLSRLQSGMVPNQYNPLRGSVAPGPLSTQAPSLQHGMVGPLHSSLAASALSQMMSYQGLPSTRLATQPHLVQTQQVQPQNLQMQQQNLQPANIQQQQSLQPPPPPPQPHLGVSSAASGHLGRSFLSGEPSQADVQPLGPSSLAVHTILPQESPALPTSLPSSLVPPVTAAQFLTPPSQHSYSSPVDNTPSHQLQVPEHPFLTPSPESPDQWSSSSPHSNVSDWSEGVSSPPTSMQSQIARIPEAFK
Chain of ICN1-CSL complex (Q06330 whole entry): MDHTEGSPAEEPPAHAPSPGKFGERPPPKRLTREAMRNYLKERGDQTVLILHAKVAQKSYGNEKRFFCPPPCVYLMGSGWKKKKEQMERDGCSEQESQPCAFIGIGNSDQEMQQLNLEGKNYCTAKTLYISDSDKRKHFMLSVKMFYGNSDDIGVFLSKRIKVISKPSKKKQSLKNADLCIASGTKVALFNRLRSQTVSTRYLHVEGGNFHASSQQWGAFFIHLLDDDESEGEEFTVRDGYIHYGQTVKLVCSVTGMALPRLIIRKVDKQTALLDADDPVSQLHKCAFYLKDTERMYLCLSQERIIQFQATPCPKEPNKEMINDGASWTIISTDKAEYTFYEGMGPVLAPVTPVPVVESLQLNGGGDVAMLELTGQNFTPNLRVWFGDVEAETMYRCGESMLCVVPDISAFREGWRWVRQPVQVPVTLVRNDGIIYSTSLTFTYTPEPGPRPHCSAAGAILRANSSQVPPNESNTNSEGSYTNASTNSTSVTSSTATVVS

[2] = test system: Notch target genes (HES1, MYC, DTX1); conditions: incubated with human T-ALL cells; cited from earlier work

Substance	dissociation of pre-incubated bio-sdnMAML1-GSTRAMANK1-CSL complex [1]	binding to ICN1-CSL complex and competition with MAML1 (ICN1-CSL complex)	expression of canonical Notch target genes [2]
Ac-sdnMAML1: non-labeled competitor dnMAML1 peptide capped with an acetylated beta-alanine spacer ({Ac-βAla}-HSAVMERLRRRIELCRRHHSTCEARYEAVSPERLELERQHTFALHQRCIQAKAKR; staple (positions not given here); also: stapled, staple positions not given here)	dose-dependent dissociation of the complex		
SAHM1: stapled MAML1 E21-T36 peptide with E28 and R32 replaced by i→i+4 ligated α,α-disubstituted S5 amino acids; previously reported (Ac-W[βAla]ERLRRRI[S5]LCR[S5]HHST; staple 10-14)		specifically bind the ICN1-CSL complex and competitively inhibit binding of recombinant dnMAML1 as well as full-length MAML1	inhibit the expression of a panel of canonical Notch target genes
